Changes are numbered by the printed parent chain.
B1: AB200-R1H32-R2Vk1 (Fab, V domains shown)
VH: QVQLVQSGAEVKKPGSSVKVSCKASGGTFSNYWMHWVRQAPGQGLEWMGATYRSHSDTYYNQKFKSRVTITADKSTSTAYMELSSLRSEDTAVYYCARGAIYHGYDVIDNWGQGTLVTVSS
VL: DIQMTQSPSSLSASVGDRVTITCRASQSISSYLNWYQQKPGKAPKLLIYAASSLQSGVPSRFSGSGSGTDFTLTISSLQPEDFATYYCQQFRKLPWSFGQGTKLEIKR
B2: AB200-R1H32-R2Vk20 (Fab, V domains shown)
VH: B1 VH
VL: B1 VL with A51T, S53N, F91Y, K93R, L94I, S97T
B3: AB200-R1H32-R2Vk17 (Fab, V domains shown)
VH: B1 VH
VL: B1 VL with L33I, F91Y, L94I
B4: AB200-R1H32-R2Vk24 (Fab, V domains shown)
VH: B1 VH
VL: B1 VL with A51T, S53N, L54I, F91Y, K93R
B5: AB200-R1H32-R2Vk9 (Fab, V domains shown)
VH: B1 VH
VL: B1 VL with F91Y, K93R
B6: AB200-R1H32-R2Vk31 (Fab, V domains shown)
VH: B1 VH
VL: B1 VL with A51T, S53N, S56I, K93R, S97T
B7: AB200-R1H32-R2Vk27 (Fab, V domains shown)
VH: B1 VH
VL: B1 VL with A51T, S53N, L54I, F91Y, L94I
B8: AB200-R1H32-R2Vk45 (Fab, V domains shown)
VH: B1 VH
VL: B1 VL with L33I, A51T, S53N, S56I, F91Y, K93R, L94I, S97T
B9: AB200-R1H32-R2Vk35 (Fab, V domains shown)
VH: B1 VH
VL: B1 VL with L33I, A51T, S53N, F91Y, K93R, L94I, S97T
B10: AB200-R1H32-R2Vk12 (Fab, V domains shown)
VH: B1 VH
VL: B1 VL with F91Y, L94I
B11: AB200-R1H32-R2Vk2 (Fab, V domains shown)
VH: B1 VH
VL: B1 VL with L33I
B12: AB200-R1H32-R2Vk47 (Fab, V domains shown)
VH: B1 VH
VL: B1 VL with L33I, A51T, S53N, S56I, F91Y, L94I
B13: AB200-R1H32-R2Vk28 (Fab, V domains shown)
VH: B1 VH
VL: B1 VL with A51T, S53N, L54I, L94I, S97T
B14: AB200-R1H32-R2Vk41 (Fab, V domains shown)
VH: B1 VH
VL: B1 VL with L33I, A51T, S53N, L54I, K93R, S97T
B15: AB200-R1H32-R2Vk8 (Fab, V domains shown)
VH: B1 VH
VL: B1 VL with L33I, A51T, S53N, S56I
B16: AB200-R1H32-R2Vk16 (Fab, V domains shown)
VH: B1 VH
VL: B1 VL with L33I, K93R, S97T
B17: AB200-R1H32-R2Vk3 (Fab, V domains shown)
VH: B1 VH
VL: B1 VL with A51T, S53N
B18: AB200-R1H32-R2Vk39 (Fab, V domains shown)
VH: B1 VH
VL: B1 VL with L33I, A51T, S53N, L54I, F91Y, K93R
B19: AB200-R1H32-R2Vk14 (Fab, V domains shown)
VH: B1 VH
VL: B1 VL with L33I, F91Y, K93R
B20: AB200-R1H32-R2Vk36 (Fab, V domains shown)
VH: B1 VH
VL: B1 VL with L33I, A51T, S53N, K93R, S97T
B21: AB200-R1H32-R2Vk7 (Fab, V domains shown)
VH: B1 VH
VL: B1 VL with L33I, A51T, S53N, L54I
B22: AB200-R1H32-R2Vk11 (Fab, V domains shown)
VH: B1 VH
VL: B1 VL with K93R, S97T
B23: AB200-R1H32-R2Vk4 (Fab, V domains shown)
VH: B1 VH
VL: B1 VL with A51T, S53N, L54I
B24: AB200-R1H32-R2Vk13 (Fab, V domains shown)
VH: B1 VH
VL: B1 VL with L94I, S97T
B25: AB200-R1H32-R2Vk15 (Fab, V domains shown)
VH: B1 VH
VL: B1 VL with L33I, F91Y, K93R, L94I, S97T
B26: AB200-R1H32-R2Vk10 (Fab, V domains shown)
VH: B1 VH
VL: B1 VL with F91Y, K93R, L94I, S97T
B27: AB200-R1H32-R2Vk21 (Fab, V domains shown)
VH: B1 VH
VL: B1 VL with A51T, S53N, K93R, S97T
B28: AB200-R1H32-R2Vk46 (Fab, V domains shown)
VH: B1 VH
VL: B1 VL with L33I, A51T, S53N, S56I, K93R, S97T
B29: AB200-R1H32-R2Vk42 (Fab, V domains shown)
VH: B1 VH
VL: B1 VL with L33I, A51T, S53N, L54I, F91Y, L94I
B30: AB200-R1H32-R2Vk5 (Fab, V domains shown)
VH: B1 VH
VL: B1 VL with A51T, S53N, S56I
B31: AB200-R1H32-R2Vk6 (Fab, V domains shown)
VH: B1 VH
VL: B1 VL with L33I, A51T, S53N

biological target: T1, extracellular domain of human BCMA (human, UniProt Q02223 1-54); experiment: Octet BLI; Fab 200 nM
T1 construct: amine-linked to Octet AR2G tips; also called hsBCMA; BCMA (human)
T1 sequence: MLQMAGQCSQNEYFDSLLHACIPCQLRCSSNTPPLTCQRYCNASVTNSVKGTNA

Binder	Kd
B1	1.27 nM
B2	0.867 nM
B3	1.43 nM
B4	1.05 nM
B5	1.43 nM
B6	0.665 nM
B7	1.21 nM
B8	0.714 nM
B9	0.843 nM
B10	1.53 nM
B11	1.48 nM
B12	0.766 nM
B13	1.19 nM
B14	1.19 nM
B15	0.92 nM
B16	1.17 nM

Binder	Kd
B17	1.01 nM
B18	1.06 nM
B19	1.32 nM
B20	0.83 nM
B21	1.27 nM
B22	0.936 nM
B23	1.14 nM
B24	2.2 nM
B25	1.29 nM
B26	2.1 nM
B27	0.8 nM
B28	0.778 nM
B29	1.04 nM
B30	0.882 nM
B31	1.23 nM

biological target: T2, extracellular domain of rhesus monkey BCMA (rhesus monkey, UniProt F7FFA0 1-53); experiment: Octet BLI; Fab 200 nM
T2 construct: extracellular domain; also called RhBCMA
T2 sequence (F7FFA0 entry or part of it): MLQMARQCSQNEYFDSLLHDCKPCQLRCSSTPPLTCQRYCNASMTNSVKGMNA

Binder	Kd
B1	5.42 nM
B2	4.82 nM
B3	7.49 nM
B4	4.89 nM
B5	7.38 nM
B6	2.82 nM
B7	6.9 nM
B8	3.33 nM
B9	4.13 nM
B10	9.12 nM
B11	5.5 nM
B12	3.91 nM
B13	5.99 nM
B14	4.26 nM
B15	3.59 nM
B16	4.54 nM

Binder	Kd
B17	4.38 nM
B18	4.76 nM
B19	6.05 nM
B20	3.45 nM
B21	5 nM
B22	4.1 nM
B23	5.6 nM
B24	6.59 nM
B25	6.41 nM
B26	7.86 nM
B27	3.31 nM
B28	2.98 nM
B29	5.93 nM
B30	5.66 nM
B31	4.63 nM

From patent publication US20240327535A1 (EISAI R AND D MANAGEMENT, published 2024)
